Data published in publication PMC7703752, “Proteome-level assessment of origin, prevalence and function of leucine-aspartic acid (LD) motifs” (Bioinformatics, 2019).
Where no end group is shown, it is not given here. The star is where a group is joined. FITC = O=C1OC2(c3ccc(O)cc3Oc3cc(O)ccc32)c2ccc(NC(=S)*)cc21; Ahx = NCCCCCC(=O)O

How the values were obtained:
[1] = biological target: T1, FAT domain of human FAK (892-1052) (human, UniProt Q05397 892-1052); test: fluorescence polarisation + other: differential scanning fluorimetry; the 'qualitative' methods, summed up in one sentence for each peptide: anisotropy competition (unlabelled peptide at 100 and 250 μM against 0.1 μM FITC-Ahx-LD4 with 10 μM FAT or 25 μM α-parvin) and DSF (10 μM protein, peptide at 100 and 250 μM; 20 mM HEPES pH 7.5, 150 mM NaCl, 2 mM EDTA, 1 mM TCEP); conditions: both partners purified
T1 construct: focal adhesion kinase (FAK), human, FAT domain, residues 892-1052; 15N-labelled (M9 minimal medium) in the NMR titrations; also called FAK FAT; focal adhesion targeting domain; source: E. coli BL21, expressed as GST-fusion protein (pGexP2), purified as described previously (Arold et al., 2002)
T1 sequence (looked up): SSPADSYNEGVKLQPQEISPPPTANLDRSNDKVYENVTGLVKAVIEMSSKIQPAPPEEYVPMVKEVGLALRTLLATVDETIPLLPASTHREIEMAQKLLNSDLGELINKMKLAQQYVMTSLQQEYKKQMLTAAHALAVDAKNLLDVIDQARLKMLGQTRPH

[2] = biological target: T2, Human α-parvin-CHC (residues 242-372) (human, UniProt Q9NVD7 242-372); test: as above; conditions: both partners purified
T2 construct: α-parvin, human, C-terminal CH domain, residues 242-372; also called second CH domain of α-parvin; source: E. coli BL21, expressed as GST-fusion protein (pGex 6P1), purified as described previously (Lorenz et al., 2008)
T2 sequence (looked up): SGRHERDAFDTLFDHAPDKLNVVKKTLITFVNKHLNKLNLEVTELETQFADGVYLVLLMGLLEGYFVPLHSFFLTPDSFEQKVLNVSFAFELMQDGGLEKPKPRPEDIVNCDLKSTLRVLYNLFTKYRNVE

[3] = biological target: T3, Human α-parvin-CHC (residues 242–372) (human, UniProt Q9NVD7 242-372); test: MST
T3 chain: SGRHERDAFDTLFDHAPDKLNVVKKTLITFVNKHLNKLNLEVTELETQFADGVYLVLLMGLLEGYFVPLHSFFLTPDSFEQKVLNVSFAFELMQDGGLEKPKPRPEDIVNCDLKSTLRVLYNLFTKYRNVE

[4] = biological target: T1, FAT domain of human FAK (892-1052); test: fluorescence polarisation + other: differential scanning fluorimetry; the 'qualitative' methods, summed up in one sentence for each peptide: anisotropy competition (unlabelled peptide at 100 and 250 μM against 0.1 μM FITC-Ahx-LD4 with 10 μM FAT or 25 μM α-parvin) and DSF (10 μM protein, peptide at 100 and 250 μM; 20 mM HEPES pH 7.5, 150 mM NaCl, 2 mM EDTA, 1 mM TCEP); conditions: both partners purified; remark: listed apart in the source
[5] = biological target: T2, Human α-parvin-CHC (residues 242-372); test: as above; conditions: both partners purified; remark: listed apart in the source
[6] = biological target: T4, FAT domain of human FAK (892–1052) (human, UniProt Q05397 892-1052); test: fluorescence polarisation + MST + ITC + other: differential scanning fluorimetry; synthesized peptides against recombinant LDBDs in vitro; direct anisotropy with labelled candidate peptides, anisotropy competition of unlabelled peptides against fluorescently labelled known LD motifs, ITC, MST and DSF summed up together; 25°C, 20 mM HEPES pH 7.5, 150 mM NaCl, 2 mM EDTA, 1 mM TCEP, unless stated otherwise; conditions: both partners purified
T4 construct: focal adhesion kinase (FAK), human, FAT domain, residues 892-1052; 15N-labelled for the NMR titrations; Purification and fate of the GST are told only in the Supplementary Material and in the cited work (Arold et al., 2002); also called FAK FAT; four-helix FAT domain from FAK; source: E. coli BL21, expressed as GST-fusion protein
T4 sequence (looked up): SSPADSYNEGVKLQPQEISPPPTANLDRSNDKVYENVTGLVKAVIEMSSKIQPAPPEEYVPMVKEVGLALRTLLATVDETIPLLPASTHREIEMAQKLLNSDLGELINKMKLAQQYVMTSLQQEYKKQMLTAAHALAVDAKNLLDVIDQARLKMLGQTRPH

[7] = biological target: T5, Human α-parvin-CHC (residues 242–372) (human, UniProt Q9NVD7 242-372); test: as above; conditions: both partners purified
T5 construct: α-parvin, human, second CH domain (CHC), residues 242-372; Purification and fate of the GST are told only in the Supplementary Material and in the cited work (Lorenz et al., 2008); also called second CH domain of α-parvin; source: E. coli BL21, expressed as GST-fusion protein
T5 sequence (looked up): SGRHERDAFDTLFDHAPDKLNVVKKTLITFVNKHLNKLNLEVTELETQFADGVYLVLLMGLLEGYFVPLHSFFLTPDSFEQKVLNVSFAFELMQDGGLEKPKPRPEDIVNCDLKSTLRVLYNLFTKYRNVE

[8] = biological target: T6, FAT domain of human FAK (892–1052) (human, UniProt Q05397 892-1052); test: MST
T6 chain: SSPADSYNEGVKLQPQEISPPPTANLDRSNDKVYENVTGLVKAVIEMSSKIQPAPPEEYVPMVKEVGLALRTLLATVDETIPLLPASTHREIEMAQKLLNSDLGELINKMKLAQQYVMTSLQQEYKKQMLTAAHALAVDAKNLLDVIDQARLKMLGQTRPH

[9] = biological target: T3, Human α-parvin-CHC (residues 242–372); test: FP
[10] = biological target: T1, FAT domain of human FAK (892-1052); test: fluorescence polarisation + MST; the 'quantitative' methods, summed up in one sentence for each peptide: direct anisotropy (protein serially diluted, FITC-Ahx peptide 0.1 μM; 20 mM HEPES pH 7.5, 150 mM NaCl, 2 mM EDTA, 2 mM DTT, 0.005% Tween-20; room temperature) and MST (protein diluted from 560 μM FAT or 530 μM α-parvin, labelled peptide 0.1 μM, 0.05% Tween-20, 25 °C); ITC in selected cases; conditions: both partners purified
[11] = biological target: T2, Human α-parvin-CHC (residues 242-372); test: as above; conditions: both partners purified
[12] = biological target: T6, FAT domain of human FAK (892–1052); test: ITC
[13] = biological target: T6, FAT domain of human FAK (892–1052); test: FP
[14] = biological target: T1, FAT domain of human FAK (892-1052); test: fluorescence polarisation + MST; the 'quantitative' methods, summed up in one sentence for each peptide: direct anisotropy (protein serially diluted, FITC-Ahx peptide 0.1 μM; 20 mM HEPES pH 7.5, 150 mM NaCl, 2 mM EDTA, 2 mM DTT, 0.005% Tween-20; room temperature) and MST (protein diluted from 560 μM FAT or 530 μM α-parvin, labelled peptide 0.1 μM, 0.05% Tween-20, 25 °C); ITC in selected cases; conditions: both partners purified; remark: listed apart in the source

B1: RALGAPA1 LD motif peptide, unlabelled (peptide)
peptide: EDVLDELLQYLGVT
notes: core motif 1680-1689; form without label, used in ACA and DSF; also called RGPA1; source: synthetic peptide, bought: GenScript
What does the source list for B1?
binding result [1]: binds; binding result [2]: binds

B2: NCOA2 (nuclear receptor coactivator 2) LD motif peptide (peptide)
peptide: SELDNLEEILDDLQNSQ
modifications: also: N-terminal FITC-Ahx only in labelled form
How did the Kd [3] turn out when B2 was run?
The Kd was 251 µM.

B3: C16orf71 LD motif peptide, unlabelled (peptide)
peptide: EAWDLDDILQSLQGQ
notes: Uncharacterized protein C16orf71, human; core motif 267-276; form without label, used in ACA and DSF; also called CP071; source: synthetic peptide, bought: GenScript
Does B3 bind [4]?
Result: binds

Does B3 bind [5]?
Result: binds

B4: PPP2R3A LD motif peptide, unlabelled (peptide)
peptide: SQEEIDKLLMDLESFSQ
notes: Serine/threonine-protein phosphatase 2A regulatory subunit B'' subunit alpha, human; core motif 508-517; form without label, used in ACA, DSF and ITC; source: synthetic peptide, bought: GenScript
Does B4 bind [1]?
Result: binds

Does B4 bind [2]?
Result: binds

B5: C16orf71 LD motif peptide (peptide)
peptide: EAWDLDDILQSLQGQ
modifications: also: N-terminal FITC-Ahx only in labelled form
notes: predicted LD motif of human C16orf71; also called CP071; source: synthetic peptide, bought: GenScript
Does B5 bind [6]?
Result: binds

Does B5 bind [7]?
Result: binds

What about the Kd [3] of the same binder?
The Kd was 32.3 µM.

And the Kd [8]?
The Kd was 17.2 µM.

What about the Kd [9] of the same binder?
The Kd was 52 µM.

B6: PPP2R3A LD motif peptide, FITC-Ahx-labelled (peptide)
peptide: {FITC-Ahx}-SQEEIDKLLMDLESFSQ
notes: Serine/threonine-protein phosphatase 2A regulatory subunit B'' subunit alpha, human; core motif 508-517; labelled form, used in direct anisotropy and MST; source: synthetic peptide, bought: GenScript
Does B6 bind [10]?
Result: binds

Does B6 bind [11]?
Result: binds

B7: EPB41L5 LD motif peptide, unlabelled (peptide)
peptide: ATDELDALLASLTENLID
notes: Band 4.1-like protein 5, human; core motif 634-643; form without label, used in ACA, DSF and ITC; also called E41L5; Band 4.1-like protein 5 peptide; source: synthetic peptide, bought: GenScript
Which results are given for B7?
binding result [1]: binds; binding result [2]: binds

B8: CCDC158 LD motif peptide, unlabelled (peptide)
peptide: DPTRDLKQLLQELRSVIN
notes: core motif 903-912; form without label, used in ACA, DSF and NMR; also called CD158; source: synthetic peptide, bought: GenScript
Does B8 bind [4]?
Result: binds

Does B8 bind [5]?
Result: binds

B9: CREB3 LD motif peptide (peptide)
peptide: SDWEVDDLLCSLLSPPA
modifications: also: N-terminal FITC-Ahx only in labelled form
What does the source list for B9?
Kd [3]: 110 µM; Kd [9]: 101 µM

B10: Paxillin LD4 peptide (peptide)
peptide: SASSATRELDELMASLSD
modifications: also: N-terminal FITC-Ahx only in labelled form
For B10, which Kd [12] is on record?
Its Kd is 19.7 µM.

What about the Kd [3] of the same binder?
The Kd was 3.1 µM.

And the Kd [8]?
The Kd was 55.5 µM.

And the Kd [9]?
The Kd was 24.5 µM.

What about the Kd [13] of the same binder?
Its Kd is 7.1 µM.

B11: LPP LD motif peptide, unlabelled (peptide)
peptide: AEIDSLTSILADLESS
notes: Lipoma-preferred partner, human; core motif 123-132; form without label, used in ACA, DSF and NMR; also called lipoma-preferred partner peptide; source: synthetic peptide, bought: GenScript
Does B11 bind [2]?
Result: binds

B12: EPB41L5 LD motif peptide, FITC-Ahx-labelled (peptide)
peptide: {FITC-Ahx}-ATDELDALLASLTENLID
notes: Band 4.1-like protein 5, human; core motif 634-643; labelled form, used in direct anisotropy and MST; also called E41L5; source: synthetic peptide, bought: GenScript
Does B12 bind [10]?
Result: binds

Does B12 bind [11]?
Result: binds

B13: CCDC158 (Coiled-coil domain-containing protein 158) LD motif peptide (peptide)
peptide: DPTRDLKQLLQELRSVIN
modifications: also: N-terminal FITC-Ahx only in labelled form
Which Kd [13] does the source give for B13 here?
The Kd was 41.6 µM.

B14: LPP LD motif peptide, FITC-Ahx-labelled (peptide)
peptide: {FITC-Ahx}-AEIDSLTSILADLESS
notes: Lipoma-preferred partner, human; core motif 123-132; labelled form, used in direct anisotropy and MST; source: synthetic peptide, bought: GenScript
Does B14 bind [10]?
Result: binds

Does B14 bind [11]?
Result: binds

B15: CAST LD motif peptide (peptide)
peptide: DAALDDLIDTLGGP
modifications: also: N-terminal FITC-Ahx only in labelled form
What does the source list for B15?
Kd [3]: 273 µM; Kd [8]: 178 µM

B16: LPP (Lipoma-preferred partner) LD motif peptide (peptide)
peptide: AEIDSLTSILADLESS
modifications: also: N-terminal FITC-Ahx only in labelled form
notes: predicted LD motif of human LPP (Lipoma-preferred partner); source: synthetic peptide, bought: GenScript
Does B16 bind [7]?
Result: binds

B17: CCDC158 LD motif peptide, FITC-Ahx-labelled (peptide)
peptide: {FITC-Ahx}-DPTRDLKQLLQELRSVIN
notes: core motif 903-912; labelled form, used in direct anisotropy and MST; also called CD158; source: synthetic peptide, bought: GenScript
Does B17 bind [14]?
Result: binds

B18: LPP (Lipoma-preferred partner) LD motif peptide (peptide)
peptide: AEIDSLTSILADLESS
modifications: also: also used as N-terminal FITC-Ahx-labelled form
What does the source list for B18?
Kd [3]: 169 µM; Kd [13]: 97.4 µM

B19: NCOA3 (nuclear receptor coactivator 3) LD motif peptide (peptide)
peptide: GDLDNLDAILGDLTSSD
modifications: also: N-terminal FITC-Ahx only in labelled form
Which Kd [8] does the source give for B19 here?
Its Kd is 261 µM.

B20: PPP2R3A LD motif peptide (peptide)
peptide: SQEEIDKLLMDLESFSQ
modifications: also: N-terminal FITC-Ahx only in labelled form
How did the Kd [12] turn out when B20 was run?
The Kd was 19.7 µM.

And the Kd [8]?
The Kd was 90 µM.

What about the Kd [9] of the same binder?
Its Kd is 23.3 µM.

And the Kd [13]?
Its Kd is 41 µM.
